# Data: US20230272029A1, “CO-AGONISTS AT GLP-1 AND GIP RECEPTORS SUITABLE FOR ORAL DELIVERY” (Novo Nordisk A/S, priority 2020, published 2023)
# Starred links: 1 amine or outer side, 2 acyl side, 3 side chain; linkers in the order of their positions; H or OH if unused. Non-standard residues stand in square brackets, D forms with d. Groups on a side chain read outwards from the residue. No end group written: not given here. *: point of attachment. C18 diacid = O=C(O)CCCCCCCCCCCCCCCCC(=O)*; C16 diacid = O=C(O)CCCCCCCCCCCCCCC(=O)*; γGlu = O=C(O)[C@H](CCC(=O)[*:2])N[*:1]; εLys = N[C@@H](CCCCN[*:1])C(=O)[*:2]; AEEA = NCCOCCOCC(=O)O; Aib = CC(C)(N)C(=O)O
# B1: Compound No. 34 (peptide)
# peptide: Y[Aib]EGTFTSDYSIILEK([εLys-εLys-γGlu-C18 diacid])QAAREFINWLLAGGPSSGAPPPS-OH
# modifications: N-terminus assumed
# SMILES: CC[C@H](C)[C@H](NC(=O)[C@H](Cc1ccccc1)NC(=O)[C@H](CCC(=O)O)NC(=O)[C@H](CCCNC(=N)N)NC(=O)[C@H](C)NC(=O)[C@H](C)NC(=O)[C@H](CCC(N)=O)NC(=O)[C@H](CCCCNC(=O)[C@@H](N)CCCCNC(=O)[C@@H](N)CCCCNC(=O)CC[C@H](NC(=O)CCCCCCCCCCCCCCCCC(=O)O)C(=O)O)NC(=O)[C@H](CCC(=O)O)NC(=O)[C@H](CC(C)C)NC(=O)[C@@H](NC(=O)[C@@H](NC(=O)[C@H](CO)NC(=O)[C@H](Cc1ccc(O)cc1)NC(=O)[C@H](CC(=O)O)NC(=O)[C@H](CO)NC(=O)[C@@H](NC(=O)[C@H](Cc1ccccc1)NC(=O)[C@@H](NC(=O)CNC(=O)[C@H](CCC(=O)O)NC(=O)C(C)(C)NC(=O)[C@@H](N)Cc1ccc(O)cc1)[C@@H](C)O)[C@@H](C)O)[C@@H](C)CC)[C@@H](C)CC)C(=O)N[C@@H](CC(N)=O)C(=O)N[C@@H](Cc1c[nH]c2ccccc12)C(=O)N[C@@H](CC(C)C)C(=O)N[C@@H](CC(C)C)C(=O)N[C@@H](C)C(=O)NCC(=O)NCC(=O)N1CCC[C@H]1C(=O)N[C@@H](CO)C(=O)N[C@@H](CO)C(=O)NCC(=O)N[C@@H](C)C(=O)N1CCC[C@H]1C(=O)N1CCC[C@H]1C(=O)N1CCC[C@H]1C(=O)N[C@@H](CO)C(=O)O
# B2: Compound No. 45 (peptide)
# peptide: Y[Aib]EGTFTSDYSILLEEQAAREFIEWLLAGGPSK([AEEA-AEEA-γGlu-C18 diacid])GAPPPS-OH
# B3: Compound No. 33 (peptide)
# peptide: Y[Aib]EGTVTSDYSILLEK([εLys-εLys-γGlu-C18 diacid])QAAREFINWLLAGGPSSGAPPPS-OH
# modifications: N-terminus assumed
# SMILES: CC[C@H](C)[C@H](NC(=O)[C@H](Cc1ccccc1)NC(=O)[C@H](CCC(=O)O)NC(=O)[C@H](CCCNC(=N)N)NC(=O)[C@H](C)NC(=O)[C@H](C)NC(=O)[C@H](CCC(N)=O)NC(=O)[C@H](CCCCNC(=O)[C@@H](N)CCCCNC(=O)[C@@H](N)CCCCNC(=O)CC[C@H](NC(=O)CCCCCCCCCCCCCCCCC(=O)O)C(=O)O)NC(=O)[C@H](CCC(=O)O)NC(=O)[C@H](CC(C)C)NC(=O)[C@H](CC(C)C)NC(=O)[C@@H](NC(=O)[C@H](CO)NC(=O)[C@H](Cc1ccc(O)cc1)NC(=O)[C@H](CC(=O)O)NC(=O)[C@H](CO)NC(=O)[C@@H](NC(=O)[C@@H](NC(=O)[C@@H](NC(=O)CNC(=O)[C@H](CCC(=O)O)NC(=O)C(C)(C)NC(=O)[C@@H](N)Cc1ccc(O)cc1)[C@@H](C)O)C(C)C)[C@@H](C)O)[C@@H](C)CC)C(=O)N[C@@H](CC(N)=O)C(=O)N[C@@H](Cc1c[nH]c2ccccc12)C(=O)N[C@@H](CC(C)C)C(=O)N[C@@H](CC(C)C)C(=O)N[C@@H](C)C(=O)NCC(=O)NCC(=O)N1CCC[C@H]1C(=O)N[C@@H](CO)C(=O)N[C@@H](CO)C(=O)NCC(=O)N[C@@H](C)C(=O)N1CCC[C@H]1C(=O)N1CCC[C@H]1C(=O)N1CCC[C@H]1C(=O)N[C@@H](CO)C(=O)O
# B4: Compound No. 35 (peptide)
# peptide: Y[Aib]EGTFTSDYSILLEK([AEEA-AEEA-γGlu-C18 diacid])QAAREFINWLLAGGPSSGAPPPS-OH
# B5: Compound No. 47 (peptide)
# peptide: Y[Aib]EGTFTSDYSILLEEQAAREFIEWLLAGGPSKGAPPPS-OH
# modifications: not fully specified (residue 33)
# B6: Compound No. 46 (peptide)
# peptide: Y[Aib]EGTFTSDYSILLEEQAAREFIEWLLAGGPSK([εLys-εLys-γGlu-C16 diacid])GAPPPS-OH
# B7: Compound No. 4 (peptide)
# peptide: Y[Aib]EGTFTSDYSYYLEK([εLys-εLys-γGlu-C18 diacid])QAAQAFVNWLLAGGPSSGAPPPS-NH2
# modifications: N-terminus assumed
# SMILES: CC(C)C[C@H](NC(=O)[C@H](CC(C)C)NC(=O)[C@H](Cc1c[nH]c2ccccc12)NC(=O)[C@H](CC(N)=O)NC(=O)[C@@H](NC(=O)[C@H](Cc1ccccc1)NC(=O)[C@H](C)NC(=O)[C@H](CCC(N)=O)NC(=O)[C@H](C)NC(=O)[C@H](C)NC(=O)[C@H](CCC(N)=O)NC(=O)[C@H](CCCCNC(=O)[C@@H](N)CCCCNC(=O)[C@@H](N)CCCCNC(=O)CC[C@H](NC(=O)CCCCCCCCCCCCCCCCC(=O)O)C(=O)O)NC(=O)[C@H](CCC(=O)O)NC(=O)[C@H](CC(C)C)NC(=O)[C@H](Cc1ccc(O)cc1)NC(=O)[C@H](Cc1ccc(O)cc1)NC(=O)[C@H](CO)NC(=O)[C@H](Cc1ccc(O)cc1)NC(=O)[C@H](CC(=O)O)NC(=O)[C@H](CO)NC(=O)[C@@H](NC(=O)[C@H](Cc1ccccc1)NC(=O)[C@@H](NC(=O)CNC(=O)[C@H](CCC(=O)O)NC(=O)C(C)(C)NC(=O)[C@@H](N)Cc1ccc(O)cc1)[C@@H](C)O)[C@@H](C)O)C(C)C)C(=O)N[C@@H](C)C(=O)NCC(=O)NCC(=O)N1CCC[C@H]1C(=O)N[C@@H](CO)C(=O)N[C@@H](CO)C(=O)NCC(=O)N[C@@H](C)C(=O)N1CCC[C@H]1C(=O)N1CCC[C@H]1C(=O)N1CCC[C@H]1C(=O)N[C@@H](CO)C(N)=O
# B8: Compound No. 5 (peptide)
# peptide: Y[Aib]EGTFTSDYSYYLEK([εLys-εLys-γGlu-C18 diacid])QAAQAFVNWLLAGGPSSGAPPPS-OH
# modifications: N-terminus assumed
# SMILES: CC(C)C[C@H](NC(=O)[C@H](CC(C)C)NC(=O)[C@H](Cc1c[nH]c2ccccc12)NC(=O)[C@H](CC(N)=O)NC(=O)[C@@H](NC(=O)[C@H](Cc1ccccc1)NC(=O)[C@H](C)NC(=O)[C@H](CCC(N)=O)NC(=O)[C@H](C)NC(=O)[C@H](C)NC(=O)[C@H](CCC(N)=O)NC(=O)[C@H](CCCCNC(=O)[C@@H](N)CCCCNC(=O)[C@@H](N)CCCCNC(=O)CC[C@H](NC(=O)CCCCCCCCCCCCCCCCC(=O)O)C(=O)O)NC(=O)[C@H](CCC(=O)O)NC(=O)[C@H](CC(C)C)NC(=O)[C@H](Cc1ccc(O)cc1)NC(=O)[C@H](Cc1ccc(O)cc1)NC(=O)[C@H](CO)NC(=O)[C@H](Cc1ccc(O)cc1)NC(=O)[C@H](CC(=O)O)NC(=O)[C@H](CO)NC(=O)[C@@H](NC(=O)[C@H](Cc1ccccc1)NC(=O)[C@@H](NC(=O)CNC(=O)[C@H](CCC(=O)O)NC(=O)C(C)(C)NC(=O)[C@@H](N)Cc1ccc(O)cc1)[C@@H](C)O)[C@@H](C)O)C(C)C)C(=O)N[C@@H](C)C(=O)NCC(=O)NCC(=O)N1CCC[C@H]1C(=O)N[C@@H](CO)C(=O)N[C@@H](CO)C(=O)NCC(=O)N[C@@H](C)C(=O)N1CCC[C@H]1C(=O)N1CCC[C@H]1C(=O)N1CCC[C@H]1C(=O)N[C@@H](CO)C(=O)O
# B9: Compound No. 36 (peptide)
# peptide: Y[Aib]EGTFTSDYSIILEK([AEEA-AEEA-γGlu-C18 diacid])QAAREFINWLLAGGPSSGAPPPS-OH
# modifications: N-terminus assumed
# SMILES: CC[C@H](C)[C@H](NC(=O)[C@H](Cc1ccccc1)NC(=O)[C@H](CCC(=O)O)NC(=O)[C@H](CCCNC(=N)N)NC(=O)[C@H](C)NC(=O)[C@H](C)NC(=O)[C@H](CCC(N)=O)NC(=O)[C@H](CCCCNC(=O)COCCOCCNC(=O)COCCOCCNC(=O)CC[C@H](NC(=O)CCCCCCCCCCCCCCCCC(=O)O)C(=O)O)NC(=O)[C@H](CCC(=O)O)NC(=O)[C@H](CC(C)C)NC(=O)[C@@H](NC(=O)[C@@H](NC(=O)[C@H](CO)NC(=O)[C@H](Cc1ccc(O)cc1)NC(=O)[C@H](CC(=O)O)NC(=O)[C@H](CO)NC(=O)[C@@H](NC(=O)[C@H](Cc1ccccc1)NC(=O)[C@@H](NC(=O)CNC(=O)[C@H](CCC(=O)O)NC(=O)C(C)(C)NC(=O)[C@@H](N)Cc1ccc(O)cc1)[C@@H](C)O)[C@@H](C)O)[C@@H](C)CC)[C@@H](C)CC)C(=O)N[C@@H](CC(N)=O)C(=O)N[C@@H](Cc1c[nH]c2ccccc12)C(=O)N[C@@H](CC(C)C)C(=O)N[C@@H](CC(C)C)C(=O)N[C@@H](C)C(=O)NCC(=O)NCC(=O)N1CCC[C@H]1C(=O)N[C@@H](CO)C(=O)N[C@@H](CO)C(=O)NCC(=O)N[C@@H](C)C(=O)N1CCC[C@H]1C(=O)N1CCC[C@H]1C(=O)N1CCC[C@H]1C(=O)N[C@@H](CO)C(=O)O
# What was measured:
# [1] = biological target: human GLP-1 receptor (human, UniProt P43220 24-463); test: cell-based or functional assay
# [2] = biological target: T1, human GIP receptor (human, UniProt P48546 22-466); test: cell-based or functional assay
# T1 sequence (looked up): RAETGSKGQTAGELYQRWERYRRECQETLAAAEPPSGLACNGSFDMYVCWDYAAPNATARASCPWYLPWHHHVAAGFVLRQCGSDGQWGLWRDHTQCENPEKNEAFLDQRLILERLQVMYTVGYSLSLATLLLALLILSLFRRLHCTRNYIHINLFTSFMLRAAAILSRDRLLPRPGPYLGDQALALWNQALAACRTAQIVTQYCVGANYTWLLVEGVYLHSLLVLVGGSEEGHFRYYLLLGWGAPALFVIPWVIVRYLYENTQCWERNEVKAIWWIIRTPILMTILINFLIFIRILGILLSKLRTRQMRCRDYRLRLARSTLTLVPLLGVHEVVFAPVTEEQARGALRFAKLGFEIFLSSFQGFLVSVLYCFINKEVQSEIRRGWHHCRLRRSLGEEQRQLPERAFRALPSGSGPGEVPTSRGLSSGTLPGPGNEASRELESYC
Binder,"hGLP-1R, CRE Luc 0% HSA EC50 (pM) [1]","hGLP-1R, CRE Luc 1% HSA EC50 (pM) [1]","hGIPR, CRE Luc 0% HSA EC50 (pM) [2]","hGIPR, CRE Luc 1% HSA EC50 (pM) [2]"
B1,6 pM,186 pM,8.3 pM,213 pM
B2,3.9 pM,1580 pM,3.8 pM,1220 pM
B3,14.8 pM,361 pM,2.9 pM,103 pM
B4,3 pM,413 pM,5.2 pM,303 pM
B5,2.1 pM,154 pM,3.1 pM,156 pM
B6,1.5 pM,111 pM,1.8 pM,97 pM
B7,6.6 pM,484 pM,8.5 pM,294 pM
B8,9.4 pM,625 pM,14.2 pM,362 pM
B9,4.7 pM,414 pM,5.5 pM,356 pM
